Tests used:
hENG(26-257)-hFc = molecular target: T1, hENG(26-257)-hFc (human, UniProt P17813 26-257); experiment: SPR, captured hENG-hFc, soluble BMP10; '-' = Binding undetectable
T1 construct: HEK 293, purified; not shown: linker and human IgG1 Fc domain
T1 sequence: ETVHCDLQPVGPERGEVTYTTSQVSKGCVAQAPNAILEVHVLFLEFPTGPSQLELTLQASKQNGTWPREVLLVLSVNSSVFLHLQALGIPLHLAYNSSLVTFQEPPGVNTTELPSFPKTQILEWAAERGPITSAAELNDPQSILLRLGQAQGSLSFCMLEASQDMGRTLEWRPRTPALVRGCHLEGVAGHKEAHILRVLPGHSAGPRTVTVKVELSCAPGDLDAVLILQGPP
Method: (§1) SPR methodology was used to screen these hENG-hFc protein variants for high-affinity binding to human BMP9 and BMP10. In these experiments, captured hENG-hFc proteins were exposed to soluble BMP9 or BMP10 at 100 nM each.

hENG(26-332)-hFc = molecular target: T2, hENG(26-332)-hFc (human, UniProt P17813 26-332); experiment: as above
T2 construct: HEK 293, purified; not shown: linker and human IgG1 Fc domain
T2 sequence: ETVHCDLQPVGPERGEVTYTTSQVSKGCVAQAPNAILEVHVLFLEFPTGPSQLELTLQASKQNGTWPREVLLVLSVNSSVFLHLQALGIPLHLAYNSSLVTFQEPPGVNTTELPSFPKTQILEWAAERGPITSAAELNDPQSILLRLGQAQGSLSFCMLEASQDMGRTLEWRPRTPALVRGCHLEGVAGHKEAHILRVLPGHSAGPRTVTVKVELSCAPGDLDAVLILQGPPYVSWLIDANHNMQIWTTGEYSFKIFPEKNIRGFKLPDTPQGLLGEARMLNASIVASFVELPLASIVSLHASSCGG
Method: as §1

hENG(458-586)-hFc = molecular target: T3, hENG(458-586)-hFc (human, UniProt P17813 458-586); experiment: as above
T3 construct: Expressed in COS cells, not purified; not shown: linker and human IgG1 Fc domain
T3 sequence: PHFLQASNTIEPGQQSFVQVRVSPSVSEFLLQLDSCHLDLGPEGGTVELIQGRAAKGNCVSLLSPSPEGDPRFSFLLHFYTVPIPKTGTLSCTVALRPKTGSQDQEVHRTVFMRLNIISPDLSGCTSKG
Method: as §1

hENG(360-581)-hFc [1] = molecular target: T4, hENG(360-581)-hFc (human, UniProt P17813 360-581); experiment: as above
T4 construct: HEK 293, purified; not shown: linker and human IgG1 Fc domain
T4 sequence: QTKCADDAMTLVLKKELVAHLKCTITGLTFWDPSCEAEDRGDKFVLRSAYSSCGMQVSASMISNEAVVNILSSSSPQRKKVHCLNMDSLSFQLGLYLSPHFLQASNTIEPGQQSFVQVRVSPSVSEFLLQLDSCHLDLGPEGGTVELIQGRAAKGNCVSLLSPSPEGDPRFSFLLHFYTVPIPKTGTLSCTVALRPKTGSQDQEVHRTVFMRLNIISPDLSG
Method: as §1

hENG(129-346)-hFc = molecular target: T5, hENG(129-346)-hFc (human, UniProt P17813 129-346); experiment: as above
T5 construct: HEK 293, purified; not shown: linker and human IgG1 Fc domain
T5 sequence: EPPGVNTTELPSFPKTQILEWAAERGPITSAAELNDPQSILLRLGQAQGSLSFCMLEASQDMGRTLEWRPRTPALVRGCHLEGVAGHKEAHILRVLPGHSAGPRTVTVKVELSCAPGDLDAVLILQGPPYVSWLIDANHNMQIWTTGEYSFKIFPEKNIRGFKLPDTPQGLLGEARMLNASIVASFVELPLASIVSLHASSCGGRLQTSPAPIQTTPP
Method: as §1

hENG(26-329)-hFc = molecular target: T6, hENG(26-329)-hFc (human, UniProt P17813 26-329); experiment: as above
T6 construct: HEK 293, purified; not shown: linker and human IgG1 Fc domain
T6 sequence: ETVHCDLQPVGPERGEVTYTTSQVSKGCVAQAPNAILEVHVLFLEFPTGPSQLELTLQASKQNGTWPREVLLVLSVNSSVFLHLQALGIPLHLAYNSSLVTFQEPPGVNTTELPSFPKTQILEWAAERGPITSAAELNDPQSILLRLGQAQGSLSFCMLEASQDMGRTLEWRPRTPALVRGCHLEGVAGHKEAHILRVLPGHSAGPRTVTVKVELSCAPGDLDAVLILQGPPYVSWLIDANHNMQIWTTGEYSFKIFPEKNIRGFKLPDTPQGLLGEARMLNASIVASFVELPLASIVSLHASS
Method: as §1

hENG(166-346)-hFc [2] = molecular target: T7, hENG(166-346)-hFc (human, UniProt P17813 166-346); experiment: as above
T7 construct: HEK 293, purified; not shown: linker and human IgG1 Fc domain
T7 sequence: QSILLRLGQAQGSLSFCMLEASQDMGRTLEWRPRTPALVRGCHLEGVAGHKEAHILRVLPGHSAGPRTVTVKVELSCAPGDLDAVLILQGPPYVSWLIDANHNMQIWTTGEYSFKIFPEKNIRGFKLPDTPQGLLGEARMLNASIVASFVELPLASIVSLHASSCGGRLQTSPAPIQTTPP
Method: as §1

hENG(458-581)-hFc = molecular target: T8, hENG(458-581)-hFc (human, UniProt P17813 458-581); experiment: as above
T8 construct: Expressed in COS cells, not purified; not shown: linker and human IgG1 Fc domain
T8 sequence: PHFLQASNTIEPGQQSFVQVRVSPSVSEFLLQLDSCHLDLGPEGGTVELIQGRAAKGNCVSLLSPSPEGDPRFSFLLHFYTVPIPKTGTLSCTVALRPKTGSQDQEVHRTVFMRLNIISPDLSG
Method: as §1

hENG(438-586)-hFc = molecular target: T9, hENG(438-586)-hFc (human, UniProt P17813 438-586); experiment: SPR, captured hENG-hFc, soluble BMP9; '-' = Binding undetectable
T9 construct: HEK 293, purified; not shown: linker and human IgG1 Fc domain
T9 sequence: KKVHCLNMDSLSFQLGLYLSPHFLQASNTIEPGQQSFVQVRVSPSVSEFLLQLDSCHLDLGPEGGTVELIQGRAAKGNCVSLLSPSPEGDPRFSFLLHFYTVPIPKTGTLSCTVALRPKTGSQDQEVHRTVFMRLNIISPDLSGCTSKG
Method: as §1

hENG(360-581)-hFc [3] = molecular target: T4, hENG(360-581)-hFc; experiment: as above
Method: as §1

hENG(166-346)-hFc [4] = molecular target: T7, hENG(166-346)-hFc; experiment: as above
Method: as §1

Measured: binding result

B1: BMP10 (ligand)
chain: NAKGNYCKRTPLYIDFKEIGWDSWIIAPPGYEAYECRGVCNYPLAEHLTPTKHAIIQALVHLKNSQKASKACCVPTKLEPISILYLDKGVVTYKFKYEGMAVSECGCR
notes: also called hBMP-10; hBMP10
no binding (tested: 100 nM): hENG(26-257)-hFc | hENG(26-332)-hFc | hENG(458-586)-hFc | hENG(360-581)-hFc [1] | hENG(129-346)-hFc | hENG(26-329)-hFc | hENG(166-346)-hFc [2] | hENG(458-581)-hFc

B2: BMP9 (ligand, human, UniProt Q9UK05 320-429, looked up)
chain: SAGAGSHCQKTSLRVNFEDIGWDSWIIAPKEYEAYECKGGCFFPLADDVTPTKHAIVQTLVHLKFPTKVGKACCVPTKLSPISVLYKDDMGVPTLKYHYEGMSVAECGCR
notes: also called hBMP-9; hBMP9
no binding (tested: 100 nM): hENG(438-586)-hFc | hENG(360-581)-hFc [3] | hENG(166-346)-hFc [4]

— patent US20200087367A1 (ACCELERON PHARMA, published 2020)
